Test results as given in patent US20140086924A1 (UNIVERSITY OF MASSACHUSETTS, published 2014).
Ends that are not written are not given here. * marks the point of attachment. Biotin = O=C1N[C@H]2[C@H](CS[C@H]2CCCCC(=O)*)N1

Assays:
full length Hsp90alpha [1] = target: T1, full length Hsp90alpha (human, UniProt P07900 1-732); test: surface plasmon resonance, biotin peptide on streptavidin chip, r-Hsp90 injected
T1 construct: also called r-Hsp90; rHsp90
Procedure: Wild type Survivin peptide 77 to 91 (SEQ ID NO:22) or the corresponding C84A mutant 77-91 peptide ([…]; SEQ ID NO:23) was synthesized with an N-terminal biotin and immobilized on streptavidin coated chips (SA5) purchased from Biacore Inc. (Piscataway, N.J.). Increasing concentrations (100 nM-10 μM) of purified r-Hsp90 suspended in 10 mM HEPES, 150 mM NaCl, 3 mM EDTA, 0.005% polysorbate-20, 1 mM DTT, were then injected in […] over the immobilized peptides. A constant flow rate of […] was maintained, and the dissociation phase was followed for 300 seconds. Surfaces were regenerated using […] of 1 M NaCl/50 mM NaOH after each dissociation phase. A new injection cycle was initiated only after 10 min post-regeneration to ensure complete removal of NaCl and NaOH. The collected data were analyzed using the Biaeval 3.0 software package from Biacore Inc.
Sensorgrams (FIG. 10B) indicate binding of the Survivin peptides to Hsp90, measured by an increase in surface plasmon resonance during analyte flow over the chip surface, with the nonspecific signal from the biotin-only surface subtracted.

full length Hsp90alpha [2] = target: T1, full length Hsp90alpha; test: competition ELISA, peptide inhibits the binding of recombinant survivin to Hsp90
Hsp 27 = target: T2, Hsp 27 (UniProt P04792 1-205); test: affinity chromatography of Raji cell extracts on immobilized peptide, Western blot
T2 construct: Endogenous protein of Raji cells
T2 sequence (P04792 whole entry): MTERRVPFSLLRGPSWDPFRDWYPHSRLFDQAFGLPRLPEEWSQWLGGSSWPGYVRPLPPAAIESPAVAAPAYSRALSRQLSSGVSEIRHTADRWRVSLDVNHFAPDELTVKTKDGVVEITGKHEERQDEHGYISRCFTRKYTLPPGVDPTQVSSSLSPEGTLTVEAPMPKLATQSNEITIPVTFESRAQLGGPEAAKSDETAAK
Description: A Survivin Ile⁷⁴-Leu⁸⁷ peptide (SEQ ID NO:4) containing a binding site for Hsp90 was immobilized onto a Sulfolink™ Coupling Gel (Pierce, Rockport, Ill.), and used to fractionate Raji cell extracts. Proteins were identified in the flow trough (FT) or eluate (E) by Western blotting with the indicated antibodies. Hsp90 and Hsp70 clearly bound the Survivin peptide including residues Ile⁷⁴-Leu⁸⁷. The anti-Hsp70 antibodies were obtained from Abcam, Cambridge, Mass. (cat. No. ab6535).

[3] = target: T3, GST-C-Hsp90 (amino acids 629-732 of SEQ ID NO:21) (human, UniProt A5A6K9 630-733 (Pan troglodytes entry)); test: ELISA, peptide immobilized at rising concentrations, Hsp90 C-terminal fragment added, detection with anti-Hsp90
T3 construct: not shown: glutathione S-transferase (GST) frame of vector pGex-4T3
T3 sequence (A5A6K9 630-733): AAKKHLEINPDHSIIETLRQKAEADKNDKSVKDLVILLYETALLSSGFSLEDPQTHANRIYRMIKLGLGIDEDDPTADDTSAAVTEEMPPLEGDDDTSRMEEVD
Procedure: (§1) ELISA experiments were performed by immobilizing recombinant Survivin (r-Survivin) ([…]) or recombinant Hsp90 (r-Hsp90) (10 μg/ml) on plastic microtiter wells (Immulon™-2, Dynatech Laboratories, Chantilly, Va.) using bicarbonate buffer, pH 9.5 (100 μl/well) for 18 hours at 4° C. Bound protein was blocked with 3% gelatin for 1 hour at 37° C., rinsed with washing buffer (TBS pH 7.4, 0.1% Tween™, 0.1% BSA) and incubated for 1 hour at 37° C. with different concentrations of a test protein to determine if the test protein bound the immobilized protein.
(§2) FIGS. 24A and 24B identify the location of P31 peptide's binding site as the N-terminus domain of Hsp90. The generation of recombinant Hsp90 fragments of the N-terminus or C-terminus is described in Example 3. ELISA experiments were performed as described in Example 2, except the indicated increasing concentrations of the P31 peptide (squares; SEQ ID NO:19) or control P33 peptide (circles; SEQ ID NO:25) were immobilized on plastic microtiter plates and incubated with the indicated Hsp90 N-terminal and C-terminal fragments. After washing, binding of the individual Hsp90 fragments to the immobilized peptides was detected with an antibody to Hsp90. Antibody to the C-terminal and N-terminal fragments of Hsp90 were obtained from BD/Transduction Laboratories and Santa Cruz Biotechnology, Inc. (Santa Cruz, Calif.), respectively.

[4] = target: T4, GST-N-Hsp90 (amino acids 1-272 of SEQ ID NO:21) (human, UniProt O02705 1-273 (pig entry)); test: ELISA, peptide immobilized at rising concentrations, Hsp90 N-terminal fragment added, detection with anti-Hsp90
T4 construct: also called N-terminal domain of Hsp90; Hsp90 N-terminal fragment; not shown: glutathione S-transferase (GST) frame of vector pGex-4T3
Procedure: as §1, §2

[5] = target: T5, GST-Hsp90 (amino acids 1-732) (human, UniProt P07900 1-732); test: pull-down of 35S in vitro translated XIAP BIR2 with GST-Hsp90, autoradiography
T5 construct: also called Sepharose-GST-Hsp90; GST fusion of full length Hsp90; not shown: glutathione S-transferase (GST) frame of vector pGex-4T3
Description: (§3) The cDNAs for XIAP and XIAP Baculovirus IAP Repeats (BIR) domains (BIR1, Met 1 to Ser 123; BIR2, Arg 124 to Pro 260; and BIR3, Ser 261 to Gln 336) were obtained from retro-transcription (SuperScript™ First Strand Synthesis System for RT-PCR, Invitrogen) of RNA extracted from HeLa cells (TRI Reagent™, Molecular Research Center Inc.), amplified by PCR, and cloned in pcDNA3 vector (Invitrogen). pcDNA3-XIAP and pcDNA3-XIAP BIR domains were translated in vitro using the TNT™ Quick Coupled Transcription/Translation System (Promega) in the presence of ³⁵S labeled methionine (Amersham), and 2, 5, and 8 μl of the reaction were incubated with 10 μg GST or GST fusion proteins as described above.
(§4) pcDNA3-XIAP and pcDNA3-XIAP BIR domains were translated in vitro as described in Example 4. […] GST-Hsp90 or GST was mixed with ³⁵S in vitro translated XIAP or its individual Baculovirus IAP Repeats: BIR1, BIR2, and BIR3. Reactions were centrifuged and proteins that associated with the pellet were detected by autoradiography.

[6] = target: T5, GST-Hsp90 (amino acids 1-732); test: pull-down of 35S in vitro translated XIAP BIR3 with GST-Hsp90, autoradiography
Description: as §3, §4

full length Hsp90alpha [7] = target: T1, full length Hsp90alpha; test: competition ELISA: peptide (20 µg/ml) preincubated with Hsp90, then added to immobilized full length Survivin (the competitor)
Procedure: as §1
ELISA experiments were performed essentially as in Example 2 with the following variations. 20 μg/ml of each recombinant Survivin peptide (expressed in E. coli) was preincubated with Hsp90 at 2.5 mg/ml for 16 hours at 4° C. After binding and blocking of full length Survivin to wells in a microtiter plate, the preincubated mixtures of Hsp90 and Survivin peptides were added to the wells and incubated for 1 hour at 37° C. Wells were washed, incubated with primary antibody, washed again, and bound antibody was quantified as described above. Each experiment was repeated three times and the standard deviation is shown. The twelve amino acid Survivin peptide including Lysine 79-Lysine 90 (K79-K90; SEQ ID NO:3) was an especially effective inhibitor of Hsp90-Survivin binding interactions.

full length Hsp90alpha [8] = target: T1, full length Hsp90alpha; test: ELISA, peptide immobilized, recombinant Hsp90 added, detection with anti-Hsp90 (n=2); no blank bar on the sheet
Procedure: Indicated synthetic peptides from the Survivin core sequence Lys 79-Leu 87 (SEQ ID NO:24) were synthesized carrying single alanine substitutions at each indicated position (alanine scanning mutagenesis). Individual peptides were immobilized at indicated increasing concentrations on plastic microtiter plates, incubated with recombinant Hsp90, and binding to the various substrates was determined with an antibody to Hsp90 by ELISA and quantified by absorbance at OD₄₀₅. […] In contrast, no differences were observed between the wild type peptide sequence and alanine substitutions of the residues flanking this sequence, Lys 79, Ala 85, Phe 86, and Leu 87.

B1: wild type Survivin peptide 77 to 91 (peptide)
peptide: Biotin-HKKHSSGCAFLSVKK
notes: Immobilized on streptavidin coated Biacore chips; also called wild type peptide
For B1, the Kd (full length Hsp90alpha [1]) was 83.8 nM and the “off-rate, fold slower than the C84A peptide (SEQ ID NO:23)” value (full length Hsp90alpha [1]) was 10 fold.

B2: C84A mutant Survivin 77-91 peptide (peptide)
peptide: Biotin-HKKHSSGAAFLSVKK
notes: Immobilized on streptavidin coated Biacore chips; also called C84A peptide
B2: binds (full length Hsp90alpha [1]).

B3: shorter cell permeable Survivin peptide (Antennapedia carrier sequence fused to Survivin K79-G83) (peptide)
peptide: RQIKIWFQNRRMKWKKKHSSG
B3: binds (full length Hsp90alpha [2]).

B4: Survivin Ile74-Leu87 peptide (peptide)
peptide: IDDHKKHSSGCAFL
notes: Immobilized on Sulfolink Coupling Gel; also called Survivin peptide (Ile74-Leu87)
B4: no binding (Hsp 27).

B5: P31 survivin peptide (Antennapedia carrier sequence fused to Survivin K79-L87) (peptide)
peptide: Biotin-RQIKIWFQNRRMKWKKKHSSGCAFL
notes: also called Survivin cell permeable peptide
B5: no binding (tested: 0.25 mg/ml) [3]; binds [4]; binds (full length Hsp90alpha [2]).

B6: XIAP BIR2 fragment (Arg 124 to Pro 260) (other, human, UniProt P98170 124-260, looked up)
chain: RDHFALDRPSETHADYLLRTGQVVDISDTIYPRNPAMYSEEARLKSFQNWPDYAHLTPRELASAGLYYTGIGDQVQCFCCGGKLKNWEPCDRAWSEHRRHFPNCFFVLGRNLNIRSESDAVSSDRNFPNSTNLPRNP
notes: range 124-260; 35S-labelled, in vitro translated
B6: no binding [5].

B7: XIAP BIR3 fragment (Ser 261 to Gln 336) (other, human, UniProt P98170 261-336, looked up)
chain: SMADYEARIFTFGTWIYSVNKEQLARAGFYALGEGDKVKCFHCGGGLTDWKPSEDPWEQHAKWYPGCKYLLEQKGQ
notes: range 261-336; 35S-labelled, in vitro translated
B7: no binding [6].

B8: Survivin peptide Lysine 79-Lysine 90 (peptide)
peptide: KHSSGCAFLSVK
notes: Called both synthetic and recombinant (expressed in E. coli) in the same paragraph; also called K79-K90
B8: binds (full length Hsp90alpha [7]).

B9: Survivin core sequence peptide Lys 79-Leu 87 (peptide)
peptide: KHSSGCAFL
notes: Synthetic, immobilized on plastic microtiter plates; also called Survivin peptide (K79-L87)
B9: binds (full length Hsp90alpha [8]).

B10: Survivin Lys 79-Leu 87 peptide with alanine substitution of Lys 79 (peptide)
peptide: AHSSGCAFL
notes: also called K79A
B10: binds (full length Hsp90alpha [8]).

B11: Survivin Lys 79-Leu 87 peptide with alanine substitution of Leu 87 (peptide)
peptide: KHSSGCAFA
notes: also called L87A
B11: binds (full length Hsp90alpha [8]).

B12: Survivin Lys 79-Leu 87 peptide with alanine substitution of Phe 86 (peptide)
peptide: KHSSGCAAL
notes: also called F86A
B12: binds (full length Hsp90alpha [8]).
